Data: US6372459B1, “N-acetyl amino acid racemase” (Degussa AG, priority 1999, dated 2002)

Legend:
[1] = standard enzyme test for racemase (AAR) activity, HPLC detection; format: biochemical, Amycolatopsis orientalis subspecies lurida
Excerpt: The AAR activity was followed up in a coupled enzymatic assay (Diagram 1), in that the formation of a deacetylated amino acid from an N-acetyl-D-amino acid, methionine here, was detected using the HPLC system I. The L-specific […] from pig kidneys or Aspergillus oryzae served as the auxiliary enzymes. [drawing 1]
Further characterization of the AAR took place using the HPLC system II. Using this system, it was possible to study the activity of the AAR directly. In this way, it was possible to do without the auxiliary enzyme, the acylase, so that it was possible to avoid disruptive interference activity.
Crude extracts of the superexpression clone, […]. purified enzyme fractions, were used in an enzyme test, in that it was possible to detect the formation of L-methionine from N-acetyl-D-methionine (see Diagram 1), via HPLC:
The standard enzyme test (modified according to Tokuyama et al., Appl. Microbiol. Biotechnol. (1994), 40, 835-840; ibid., Appl. Microbiol. Biotechnol. (1995a), 42, 853-859), was composed as follows:
Solvent: Tris/HCl, pH 7.5, 50 mM
N-acetyl-D-methionine 25 mM
Acylase I (ASch or AAsp) 1 U
Protein 2-150 μg purified protein or total protein
In this connection, acylase I and Co^2+ are present in excess, so that the AAR reaction is the step that determines the speed. Incubation took place for 10-40 min at 30° C. The reaction was then stopped by boiling for 3 min. Analysis of the reaction products took place using HPLC (System I).
Unless mentioned otherwise, acylase I from pig kidneys (ASch) was used in the enzyme test, and Co^2+, was used as the ion (CoCl2×6H2O). Alternatively, however, acylase I from Aspergillus oryzae (AAsp) was also used.
In assays that were analyzed using the HPLC system II, the acylase could be left out, since it is possible to separate and analyze N-acetyl amino acids directly, enantioselectively, with this system.
Other than Co^2+ (CoCl2×6H2O), other bivalent ions, such as MnCl2×4H2O, […], and MgCl2×6H2O were used in various concentrations (0.1-10 mM).
Substrate inhibition was tested in that the activity of the AAR was mixed with 25 to 400 mM N-acetyl-D-methionine as the substrate.

[2] = as above; format: biochemical, Amycolatopsis orientalis subspecies lurida; details: N-unprotected amino acids as substrate

B1: AAR from A. orientalis subspecies lurida: N-acetyl amino acid racemase (SEQ ID NO: 2) from Amycolatopsis orientalis subspecies lurida, natural or recombinant enzyme (protein)
chain: VKLSGVELRRVRMPLVAPFRTSFGTQSERELLLVRAVTPAGEGWGECVAMEAPLYSSEYNDAAEHVLRNHLIPALLAAEDVTAHKVTPLLAKFKGHRMAKGALEMAVLDAELRAHDRSFAAELGSTRDSVACGVSVGIMDSIPHLLDVVGGYLDEGYVRIKLKIEPGWDVEPVRQVRERFGDDVLLQVDANTAYTLGDAPLLSRLDPFDLLLIEQPLEEEDVLGHAELAKRIRTPICLDESIVSAKAAADAIKLGACQIVNIKPGRVGGYLEARRVHDVCAAHGIAVWCGGMIETGLGRAANVALASLPGFTLPGDTSASGRFYRTDITEPFVLDAGHLPVPTGPGLGVTPIPDLLDEVTTEKAWIGS
optimum pH [1]: 8
increase in the activity as compared with the activity without metal ion ([1]; 1 mM CoCl2×6H2O in the assay): 1250%
specific AAR activity after purification ([1]; 2 mM CoCl2×6H2O in the assay): 30.6 U/mg
specific activity higher than the one found for racemase by Tokuyama and Hatano ([1]; 2 mM CoCl2×6H2O in the assay): approximately 30.8%
activity ([1]; 10 mM CoCl2×6H2O in the assay): 37.5 U/mg
activity with Mg in comparison with cobalt substitution ([1]; MgCl2×6H2O at 10 mM, standard enzyme assay): about 40%
activity with Mn in comparison with cobalt substitution ([1]; MnCl2×4H2O at 10 mM, standard enzyme assay): about 40%
substrate concentration at which substrate inhibition occurs ([1]; N-acetyl-D-methionine as substrate, 25 to 400 mM tested): greater than 200 mM
AAR activity in crude extracts of the expression clone ([1]; crude extracts of E. coli BL21 (DE3) with pAAR3-21I): 0.6-1.2 U/mg total protein
more active than the racemase from A. sp. TS-1-60 ([1]; same CoCl2×6H2O concentration in the assay): 152%
conversion of amino acids not protected with N-acetyl [2]: does not convert
conversion of amino acids not protected with N-acetyl ([2]; listed as AAR): not converted
